Test results reported in the NTF2 design screens of Basanta et al. (2020).

Experiment: protease stability score; higher = more stable; yeast display proteolysis, trypsin and chymotrypsin;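 also: relative to predicted unfolded state with 0 unfolded-like and 1 meaning tenfold more protease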

In order of rising protease stability score:
1. KEDEELSSRFMLLMWHLMVTGNWKILEELADPNVRFIDEHHTLHGREEFVRTFKDWFDEIKNMKIHVRDSTVQGEKSNIHGELNFNGKRVDYTFIILFFNGRLHQIELRYH  -0.069
2. DERTEFLERMSEHLTHVWHTGNEELWNRLADPRARFIEFVDGKKNHHHGMEVASNRIKKWRKDLGIDHVRLKEERVQGNKVELHLQVDINGVEQTVEIYNSIVDGRFESLEVNIHTR  0.074
3. NEDDHIMEELTRIFIQNLRTGNEEEWAKYADPDTRLDFNGVDIIGRESILHWLKHMLTELRFTKIIFHHINAVNGRIHLDVEQHVEVGDKSQTIRSEIHIRVVNGVIKREYYRYK  0.092
4. DEERKIAEKFAELYQHWEHTGNEDEMRSFFDPNYRLFVGEKEFVGRKTRSRWHREYIEKLGVDHVEIQDYRVQGNFVESDLVLRFNGREVKTEIRINVIDGRIKEVHIITH  0.198
5. DEEKELSKKLLEVFIKVMRTGDWRAFSERLDPHTRTDVNGVDIHGRENTLELLRRLEEEWGVSRVDVRIHDADHQGDYIKFDGIEIYNGVERRTRMVSEKFNGRWRNKIFILD  0.238
6. SEDEEEWHEATHLLVESLKTGDWKDLSRLADPNAKLHVGEKTVIGRELVSKHLKNRMTELGINHIHIEDRESQGDKIFIISHIHVNGREMKSIFIILKIDGRWILHSMEIREH  0.327
7. DEEKKSSDIAIHESLRVLKTGDEHDISEMMDPHVRIDINGREIIGMELASEIHHEIMNRIKNVRIEVKDRKLVNGQIILRGELRWNGQTVELEVTLKKINGKWWMESLHVR  0.606
8. HEEEEEARRFSTLFNRAMLTGDEDELKEYADPHVRIDINGVILHGRERLREWLEKYLKEIRWHDFKIEHVDVQGDKVDIKVNVDGHINGRRTTRETEIRVEKIDGRWVIREIRFR  0.673
9. TELETELEHMVKIVIDSLLTGDEKKLHKQADPHVRHSQGEFEWHTREAMIRFFFELGIDHMTLTEIHLQGDFVEMHIENNINGRRVELRIHWHKFNGKWINRRTHVRHI  0.698
10. DEEDEKTRRMAELWSKWKSTGDEELFHHFADPRTRLEIGDKKYHGRDLISKIWFKERKEIRSDINIKDVDVFNGVAILHGTLILEINGQRDSIDVTFHIVLINGRIHEVRVEWR  0.73
11. DDRESIAEAVIRHMVEDFRTGNEDNMKRLFDPNTQLRYGDKTHHGWEDVVELLYHDIKHFGIKHVSVDRISVIGEKIHIDMRVEVGDKELTLHFTVDKINGKWKFESVERR  0.849
12. SEEDKETKIALEISEKILETGDWEELSKNLDPDARFTFENRTHVGREEVSELLLKLIKEMGVNHVNIEDNDLQGDKIILIVEVRVGDKRVNLEIIAVKVNGRWRIHSIHERHE  0.884
13. SEVHRDLRKAVDYFEEVFRTGDEDKMNNLLDPNVRWIVNGKDLVGREKAIRRYHEHRKTLGVNHFETRIDDQEVYGNKATLHGELTIHVNGRDIHHETRLNVSKINGVWYIESFIID  0.949
14. DEEEEFYEKMFRLWFELLLTGDESTLIKLLDPHVRIDFNGRELIGWFYLSHFMREFRHRFDHVEIIIRRVTVIDGVARSDLELRVNINGKDHTVKTEVHIRVVNGRMKSLEFHIK  0.965
15. SELEEEARKMNERFWRDMITGDFDSLVRLADPHVKVLYGDKFSIGREVFEEHLRHLGIKVSHLRNLDVQGDKVIVHGESKFNGKTFELEIIMRKFDGRWFIETVNLQ  0.973
16. SEIDEWLHRWFNLWIDAFITGDEDFLKELADPDVRLVDGDFEKVGREEFTRSMRQYLRHARVDHFRIKHQHMQGDKIHVHGHIEMTINGKHIRHEIRLRFVVINGRFHSMHIEID  0.975
17. DEEERLDEEIMERIHKAYATGDFDEIKRLIDPHVRSDINGVDTHGRDDAIHYLHHVYRRLGFKHFELKHVESYDGRVHTDGWLRFNGQERRVEFRWQVIDGRIHSVSLRMK  0.975
18. SEEEHRVKELARLFVEVLLTGDWKTLLELMDPNTRLRINGKDFIGMEDAVKAWRDYLDEIRHDDIKLTRIENNEDHSHLDGRQHGIYNGQRTDTILNVDIHMVNGKIKEVHIEIE  1.01
19. SELNEISEEAVEWFRKVLLTGNEDLLLNLADPNVRYEVGDKRRVGRESMIEQIQHFLHEMGINHIHSVHIRDVRIQGDYIEVDSELETTVNGQKMYIHMFLRARKIDGKWILDRIYVH  1.02
20. DELELHAEEMYEIWIKLEETGDWEIMLELADPNTKVTWNGVRIHGMEHYLERHHREHRKIKNITTHFILRDIDVIGNKSHVDGEVEIRVNGKTIILRVHFDNVVIDGRFKSHRVIVK  1.03
21. SEKEEQARKLAKDWSHDTDTGDFKSIFDLIDPDVRVEIGDKRFVGWELVVKWHEHHRHEFGVTQIRHRVDDMELQGEKVIVRGTLIYDGVDFKVHLILEVINGRIRRVEIRIE  1.04
22. HEDERHLHEIIKRWFEALLTGDEHVLERLLDPNARIDIDGREFIGMEKFAHDISRIKNMQIKHHHIKHVRYVDGVMHWHGQRHGVVNGQEKNVEVIINLFVYDGRFKSMHIKDD  1.06
23. DEEHHDLQEFFERLKRHWETGDWKEITKNFDPNVKERYGDFEVHGREEAIRKAKEMRYNDMDIRHRRVIDGRAYLHTEMDGNFDGRERRFEVEMIITKIDGVWRIKHVTFK  1.06
24. DEEHEELKKMVQHSLQLLMTGDEETIYHLLDPHAKVIINGVEYHGMSLSAKIMIKMARDLGVERFEVHLEHSRWFDGRVDVHISRRVNGQTEEVHINSKKINGRWHLKSIIFN  1.06
25. SEEDKHASKLADLVVEMWMTGDEEKLRHLADPDVKLHIEFNGVNRNHHGRDVMIEVMQRIREEIRIHDIKIHNWHTINGRWHIDSIVDGKFNGRRHETRTEVILEVIDGRIKVISFIFQ  1.07
26. DEKQRDIEEMARRFVEIFHTGDEENYLELADPDMRLDVGDKHYHGREDVHKWLHEELRRIKNATIRIKHIHVQGDKVHLEITIEIGDKHRKSHIHLQIVDGVIKRIEIRWS  1.09
27. DEEEEHFRRLLERFLHFWRTGDEDDYHKLADPHARSEVIIGDFRIESHGRHALEIWLRYMGIDHIHLEDSDSQGNKVHVHMHVKVGDKEHHVIIILIVIDGRVHQLTISVRRT  1.13
28. DEITETAERLLRLWVHNFETGNWKKMVDLIDPNARLDVNGRHIHGWEEIAKHLTDELREWRIREIRIRDVKFIDGVNHTHIESDIEYDGRRDRTEMRIIIVVVNGRIKSVKFEIL  1.2
29. REDEEFAIHMFLNLIRWLMTGDEEQLEELADPDTKYHQGDKTLHGREEFLKWFHLMHKWLGIKHIEMRITDLRAVDGRVESEVSVDEHYDGRTKRYRTIIIVNVVNGKLKSEERHID  1.22
30. DEERKWTKEALDKLLRVIATGDEDFINQNADPRVRLEINGVEIHGRELWHKILKDHSERMGVKHTHLESHDEFNGVITIHMRLFVGDKETRIEIINLKVDGKWIIKSLRIE  1.22
31. DETTDEMDKSLERFLDVVRTGDEHEDVHLADPHARIEFENRDIHGMKEHASQRIRVMLKFGWEVHIKFRHLRQVDGRLDVRLELRIKFDGVLYHLDTNEYWRKFDGRWVLDSMEFH  1.24
32. DERDERLTEFLELYFKLWFTGDEDTFAHLADPNTRSVFNGKWIHGMESYSEWVEKHMRHLRFKDMKIRDSRVVDGQIHMNTEVEGEVNGQRYRVETRIILDVIDGRIKEVRLHIH  1.24
33. DESQHVAEKVYKHLLKYWVTGDEDSVSRLVDPHARLHFEGRDLHGRHLISQFRMEWRLDHVHVDDMQVQGDKMEVRGKLDTTIDGRRTNLNEHLRLEKIDGRWYIREIRIE  1.25
34. SEDEHDARHAIELFLRSMETGDEQSIWELADPHTLSDIDGVKLHGRDLWITFLRRYSETLGVDRVIVQVERVEVQGDKVRSHIRLHINGVTLNSRVHAEKINGVWLNRKVEFG  1.3
35. DEEEKIARELSRLLAEIIETGDEDILLRMVDPHARFIINGKTIIGRETMWELWRRHVEKLGVSRIISRLRRIHVIDGRVHVHIEETFNGRTQEVRVDYMKIDGVWLIHEISIE  1.35
36. DELHEDAEKAWRYRLEILRTGDPDSILELMDPDVRIEQGDKKFHGRELTEKFMKWLMDHARYEFFHLKDMRTYGNKVETDGYVVGNVDGQEHIVHVHVYSLKVNGRWTIKSIEIK  1.37
37. DEDEEMSKLLLEVSERVIETGDEHLWTRLLDPNVRIHLIIGDKTIELIGRERAHELLHHILERYKNATLRLRSVEIQGDKVIVESELNVGDKRIKQIYIWTKINGQWVLEEVNIEVR  1.44
38. NDLEERTKKAAEELREMHKTGDEELWLKNMDPNVRLEIIIGDKLLIFHGREKWREWFHKYKNARHEDNDEHVQGDKTRINVHIVFNGRRVDVEITLRVIDGRVHSEHINII  1.45
39. SEEEDQARKIMEILIHVFLTGDWHQLMRLLDPNTRYEIRFENHEEHNHGREDIVRWLIEFIEEMRTLVIIRHIEVQGDKAILDIELQLDINGREFRWKTLLHFRIVDGVLKMYYIHIE  1.47
40. DEEEKMDELLIKIWLKVNETGDEDTFSKLLDPDAKVIVGDKVLHGREEIEELMRQLRVDRIHVRRHKAVNGQIHQDWELRGTVNGREIRTETRVHTIKVNGQWVIHRLKIE  1.49
41. SEEDELAKRILETLVRLLLTGNEELRHELADPNMRTEVDGVDLWGMHNDVHFWREIRLKELRIRHIEVQGDKSHSITDLDVEIDGKRIRVETKIRVVVVNGKIHRLHVRID  1.51
42. DEEERDSKRALELMIHWVETGNEERLSRLIDPHARLEIGDKHHHGREEFEKWFRRIDYLQYYTVRHIELQGDKIEVKVELTFIIDGQEVHTETRVIAIKFDGRWRLTSMEIN  1.54
43. DERTEYFIREAREMLRDWVTGDWKRLHELMDPNARQDVNGVKNVGRDELSEFFEKFRERFDVYELRITEERHQGNKFIVKGDFHSNQGEFTFHHELEVHIVVVNGQFKRIEMRIR  1.55
44. DEEEKEATHYLELFWKLKETGDWDELHRLLDPNVRLRINGKDVHGMERVTEEHLKRMKEIRIRHYHLDELRVQGDFVHIDVRVNGEIDGKRNMIEFHFHARKVDGRWFLHEVRIR  1.79
45. SEEEEEARKAFDDFYKSLETGDEEDLSKMIDPHVRIDINGREVHGREYAQTFWRDLIEKVKNLTLHLRDFRVIDGRLHSKMEIHQGEFHTEVNIHSKKINGRWLVQTFEFR  1.84
46. DEIHKDAKEFTKRFIDSLHTGDWKELLEMFDPHTRIVVGDKEFIGMDEILRFERELGIEKVDYHLKHVEIRVQGEKADIHITGEIRFNGQTVDRELNIHARKIDGRWKVDEVNLDRR  1.88
47. DEDEEDARRFLEILQHHMRTGDWDSLYRLLDPHVRLHIGDKHHHGREEIRKHLHHLRFKELENRHITVYDGRMHVHGRIQGKFDGRDDKYESEIVVLKVDGQWLIEEIHVK  2.06
48. DEDTEIAFELVDLVMKSLKTGDEHLMLRLMDPHTRLEVGDKEHHGWEEILKELSEIRIHLEDVDHRDVRIYGEKIHVDVEVDITIEYNGRRTRVKTRLEVDILKVNGQWRVKQVSLK  2.07
49. DSLEDIFKLAVDDLEFLYETGDEEMTSQMADPNVRVIFNGRDFWGWHYLLKIFSELIKKLGIDHIRLEIDHVHLQGDKVDIHGTLRNHIGDFIFVHHTTHFLVKIDGRWFIRSVKIR  2.15
50. DEEEEWARYILKKTMEAWLTGDEEIIRELLDPSTRLVIDGKEFHGMDEAQFLVREIRIDRIRTDMHDVKFQGDWIHVDGHIRVDETVNGRRRHKENRINIIVLKIDGRWYLHRYIIG  2.35
